Details in all cases: other: compound as substrate of HsPanK3; mean ± SEM; 2c and 2e fitted with substrate inhibition equation 1
Substrate in data set [1]: CC(C)(CO)[C@@H](O)C(=O)NCc1cnc(-c2ccccc2)s1
The experiment in a line: HsPanK kinetic assay (pyruvate kinase/lactic dehydrogenase coupled, NADH at 340 nm). It counts as biochemical, human. The protocol: (§1) The gene encoding the catalytic core domain of human PanK3 (amino acid residues 12–368) was synthesized and cloned into the pET28a(+) expression vector using the NdeI and BamHI restriction sites to produce an N-terminal His6-tagged protein (Bio Basic Inc.). The plasmid was transformed into E. coli BL21(DE3) cells, which were cultured in Terrific Broth (TB) medium containing 50 µg/mL kanamycin at 37°C. When the culture reached an optical density at 600 nm (OD600) of 0.6, protein expression was induced by adding 1.0 mM isopropyl β-D-thiogalactoside (IPTG), followed by incubation at 18°C for 17–18 h. The cells were then harvested and resuspended in lysis buffer (20 mM Tris-HCl, pH 7.5, 500 mM NaCl, 5 mM imidazole, 5% [vol/vol] glycerol) supplemented with 1 mM PMSF (phenylmethylsulfonyl fluoride) and lysozyme (5 mg/g of the cell pellet). The suspension was then sonicated on ice, and the resulting lysate was centrifuged twice at 54,000 × g for 30 min at 4°C.
(§2) The clarified supernatant was incubated with Ni-NTA resin (Cytiva) pre-equilibrated with lysis buffer containing 5 mM imidazole at 4°C. After binding, the resin was washed with lysis buffer containing 30 mM imidazole, then eluted with lysis buffer containing 250 mM imidazole. The eluted HsPanK3 protein was dialyzed against storage buffer (20 mM Tris-HCl, pH 7.5, 200 mM NaCl, 5% [vol/vol] glycerol) and concentrated. The purified protein was stored at −80°C. Protein purity was assessed using SDS-PAGE and deemed >50% (Fig. S4).
(§3) The enzyme assay was adapted from a previously described method ([103]), which links the production of ADP to the consumption of NADH through the enzymatic activities of pyruvate kinase and lactic dehydrogenase. Reactions were conducted in 96-well microtiter plates, and the decrease in NADH concentration was measured at 340 nm at 30 s intervals after incubation at 30°C. Each reaction mixture (200 µL) contained the desired compound (substrate) at variable concentrations (0–2,000 µM), ATP (1.5 mM), NADH (0.3 mM), phospho(enol)pyruvate (2.0 mM), MgCl2 (10 mM), KCl (20 mM), a commercial pyruvate kinase/lactic dehydrogenase mixture (12 units, Sigma-Aldrich), and pantothenate kinase (0.48 µM) in 50 mM Tris–HCl buffer (pH 7.6). The reaction was initiated with the addition of ATP. The kinetic parameters were determined by fitting the rate data into the Michaelis–Menten equation using GraphPad Prism 8.0 with nonlinear regressions. Data were collected from three independent experiments, each performed in triplicate to verify the trends and optimize the selected concentrations. The kinetic parameters were calculated from the most complete triplicate set of data, and errors represent SEM.

Substrate in data set [2]: CC(C)(CO)[C@@H](O)C(=O)NCc1csc(Cc2ccccc2)n1
Described as above. It counts as biochemical, human. The protocol: as §1, §2, §3

Substrate in data set [3]: CCCCc1csc(CNC(=O)[C@H](O)C(C)(C)CO)n1
The data set is described as above. Format: biochemical, human. The protocol: as §1, §2, §3

Substrate in data set [4]: CC(C)(CO)[C@@H](O)C(=O)NCc1csc(-c2ccccc2)n1
The description is as above. It counts as biochemical, human. The method, then: as §1, §2, §3

Substrate in data set [5]: CC(C)(CO)[C@@H](O)C(=O)NCc1nc(CCc2ccccc2)cs1
Described as above. It counts as biochemical, human. The method, then:
as §1, §2, §3

Substrate in data set [6]: CCCCCc1csc(CNC(=O)[C@H](O)C(C)(C)CO)n1
The description is as above. Format: biochemical, human. The protocol: as §1, §2, §3

Substrate in data set [7]: CC(C)(CO)[C@@H](O)C(=O)NCCC(=O)O
The experiment in a line: purified protein, by the assay type.

B1: HsPanK3 (Homo sapiens) (protein)
chain: PWFGMDIGGTLVKLSYFEPIDITAEEEQEEVESLKSIRKYLTSNVAYGSTGIRDVHLELKDLTLFGRRGNLHFIRFPTQDLPTFIQMGRDKNFSTLQTVLCATGGGAYKFEKDFRTIGNLHLHKLDELDCLVKGLLYIDSVSFNGQAECYYFANASEPERCQKMPFNLDDPYPLLVVNIGSGVSILAVHSKDNYKRVTGTSLGGGTFLGLCSLLTGCESFEEALEMASKGDSTQADKLVRDIYGGDYERFGLPGWAVASSFGNMIYKEKRESVSKEDLARATLVTITNNIGSVARMCAVNEKINRVVFVGNFLRVNTLSMKLLAYALDYWSKGQLKALFLEHEGYFGAVGALLGLPN
notes: catalytic core domain of human PanK3 (amino acid residues 12–368); made in house; host or cells: E. coli BL21(DE3)
The Km is the substrate concentration at which the rate is half of its maximum. For orientation: kcat means the maximal rate divided by the concentration of active sites. As a reminder, the kcat/Km is the turnover number divided by the Michaelis constant. Consider B1, for which the Michaelis constant (Km) amounted to 75 ± 11 µM in data set [1]; 69 ± 6 µM in data set [2]; 100 ± 7 µM in data set [3]; 67 ± 10 µM in data set [4]; 42 ± 4 µM in data set [5]; 65 ± 7 µM in data set [6]. Besides, the Km in data set [7] was determined as 24 ± 4 µM. Further, the kcat in data set [1] was determined as 0.73 ± 0.02 s⁻¹; in data set [2] it was 0.63 ± 0.02 s⁻¹; in data set [3] it was 0.64 ± 0.01 s⁻¹; in data set [4], 0.73 ± 0.05 s⁻¹; in data set [5] it was 0.399 ± 0.005 s⁻¹; in data set [6], 0.61 ± 0.02 s⁻¹. In data set [7], the kcat worked out at 0.64 s⁻¹. Moreover, the catalytic efficiency (kcat/Km) is 10700 ± 800 M⁻¹ s⁻¹ in data set [1]; 9300 ± 500 M⁻¹ s⁻¹ in data set [2]; 6600 ± 400 M⁻¹ s⁻¹ in data set [3]; 12000 ± 1000 M⁻¹ s⁻¹ in data set [4]; 10000 ± 1000 M⁻¹ s⁻¹ in data set [5]; 10200 ± 900 M⁻¹ s⁻¹ in data set [6]. In data set [7], the kcat/Km worked out at 30000 M⁻¹ s⁻¹.

These data come from publication PMC12406685, “Thiazole substitution of a labile amide bond—a new option toward antiplasmodial pantothenamide-mimics” (Antimicrobial Agents and Chemotherapy, 2025).
